The source of these data is US8119766 (UNIVERSITY OF IOWA RESEARCH FOUNDATION, dated 2012).

In test [1] the target is full-length α-DG-IgG Fc fusion protein (DGFc5), secreted form from conditioned medium (human). Kind of test: solid-phase binding of laminin-1, nonlinear regression (FIG. 8C).
Test [2] concerns the target LARGE-modified DGFc5 (human). As to the kind of experiment: solid-phase laminin-1 binding assay, nonlinear regression (FIG. 9C).
In test [3] the target is full-length α-DG-IgG Fc fusion protein (DGFc5), secreted form from conditioned medium (human). Described as above.
The target in test [4] is T1, laminin-1 (mouse, UniProt P19137 25-3083; P02469 22-1786; P02468 34-1607).
T1 construct: also called mouse EHS laminin-1; biotinylated laminin-1
As to the kind of experiment: solid-phase binding of laminin-1, nonlinear regression (FIG. 8C).

Test [5] addresses T1, laminin-1. Kind of test: laminin overlay.
The target of test [6] is T1, laminin-1. As to the kind of experiment: laminin-1 overlay, with LARGE co-expression.

What is called Kd is a measure of binding affinity in units of concentration.

Consider “laminin-1 (from UniProt P19137 25-3083; P02469 22-1786; P02468 34-1607) (ligand)”, for which the Kd was 1.1 nM in test [1], 1.6 nM in test [2] and 3.1 nM in test [3].

B1: native α-DG (receptor, rabbit, UniProt Q28685 30-653, looked up)
chain: HWPSEPSEAVRDWENQLEASMHSVLSDLHEALPTVVGIPDGTAVVGRSFRVTIPTDLIGSSGEVIKVSTAGKEVLPSWLHWDPQSHTLEGLPLDTDKGVHYISVSAAQLDANGSHIPQTSSVFSIEVYPEDHSEPQSVRAASPDLGEAAASACAAEEPVTVLTVILDADLTKMTPKQRIDLLHRMQSFSEVELHNMKLVPVVNNRLFDMSAFMAGPGNAKKVVENGALLSWKLGCSLNQNSVPDIRGVEAPAREGTMSAQLGYPVVGWHIANKKPPLPKRIRRQIHATPTPVTAIGPPTTAIQEPPSRIVPTPTSPAIAPPTETMAPPVRDPVPGKPTVTTRTRGAIIQTPTLGPIQPTRVSDAGTVVSGQIRATVTIPGYVEPTAVATPPTTTTKKPRVSTPKPATPSTDSSATTTRRPTKKPRTPRPVPRVTTKAPITRLETASPPTRIRTTTSGVPRGGEPNQRPELKNHIDRVDAWVGTYFEVKIPSDTFYDKEDTTTDKLKLTLKLREQQLVGEKSWVQFNSNSQLMYGLPDSSHVGKHEYFMHATDKGGLSAVDAFEIHVHKRPQGDKAPARFKAKFVGDPAPVVNDIHKKIALVKKLAFAFGDRNCSTVTLQNITRG
modifications: native glycosylation; sites not stated
notes: mature; also called native α-dystroglycan purified from rabbit skeletal muscle
Take B1: the Kd with laminin-1 [4] was determined as 0.4 nM.

B2: DGFc2 prepared from cell lysate (Fc fusion, UniProt Q28685 30-316, looked up)
chain: HWPSEPSEAVRDWENQLEASMHSVLSDLHEALPTVVGIPDGTAVVGRSFRVTIPTDLIGSSGEVIKVSTAGKEVLPSWLHWDPQSHTLEGLPLDTDKGVHYISVSAAQLDANGSHIPQTSSVFSIEVYPEDHSEPQSVRAASPDLGEAAASACAAEEPVTVLTVILDADLTKMTPKQRIDLLHRMQSFSEVELHNMKLVPVVNNRLFDMSAFMAGPGNAKKVVENGALLSWKLGCSLNQNSVPDIRGVEAPAREGTMSAQLGYPVVGWHIANKKPPLPKRIRRQIHA
notes: domain: N-terminal domain; About 65 kDa; also called DGFc2 (cell lysate); not shown: IgG Fc portion
In the case of B2, the binding result with laminin-1 [5] is “no binding”.

B3: secreted DGFc2 from cells cultured with CMK (Fc fusion, UniProt Q28685 30-316, looked up)
chain: B2 chain
notes: domain: N-terminal domain; Migrated at the same size (~65 kDa) as DGFc2 from cell lysate; also called DGFc2 (CMK-treated, secreted); not shown: IgG Fc portion
B3: the binding result in the test with laminin-1 [5] is reported as “no binding”.

B4: DGFc6, secreted form (Fc fusion, UniProt Q28685 317-653, looked up)
chain: TPTPVTAIGPPTTAIQEPPSRIVPTPTSPAIAPPTETMAPPVRDPVPGKPTVTTRTRGAIIQTPTLGPIQPTRVSDAGTVVSGQIRATVTIPGYVEPTAVATPPTTTTKKPRVSTPKPATPSTDSSATTTRRPTKKPRTPRPVPRVTTKAPITRLETASPPTRIRTTTSGVPRGGEPNQRPELKNHIDRVDAWVGTYFEVKIPSDTFYDKEDTTTDKLKLTLKLREQQLVGEKSWVQFNSNSQLMYGLPDSSHVGKHEYFMHATDKGGLSAVDAFEIHVHKRPQGDKAPARFKAKFVGDPAPVVNDIHKKIALVKKLAFAFGDRNCSTVTLQNITRG
notes: domain: mucin-like domain and C-terminal domain; Tested with and without LARGE co-expression; not shown: IgG Fc portion
As to B4, in the test with laminin-1 [6], the binding result is on record as “no binding”.
